According to article doi:10.1101/2023.11.01.565197 (bioRxiv, 2023):

Target: the molecule itself
Experiment: cryo-EM structure

B1: rabbit Slo1 (KCNMA1) (natural protein)
chain: not shown
stoichiometry N: 4
